This series concerns the molecule itself. The series is described as follows: X-ray crystal structure, 1.53 Å.

B1: MSBI1.176 Rep protein WH1 domain (residues 1-135) (other)
chain: MSDLIVKDNALMNASYNLALVEQRLILLAIIEARETGKGINANDPLTVHASSYINQFNVERHTAYQALKDACKDLFARQFSYQEKRERGRINITSRWVSQIGYMDDTATVEIIFAPAVVPLITRLEEQFTQYDIE
notes: This entry is one protomer; Two protomers (A and B) form the WH1 homodimer in the crystal, so the self-pair is written as m1 with m1; The construct of residues 1-135 was expressed in E. coli as a His-tagged fusion in modified pMal-c2X and cleaved with HRV-3C protease; also called MSBI1.176 WH1; MSBI1 WH1
In the case of B1, the binding result is reported as “binds”.
